The data set concerns the target ΔC SSB (Escherichia coli, UniProt P0AGE0). As to the kind of experiment: EMSA; additional complexes at higher SSB:DNA ratios; EMSA: 20 mM Tris-HCl pH 8.0, 50 mM NaCl, 5% glycerol, 50 µg/ml BSA, 4 °C, 30 min, 1 pmol DNA with 0.2, 2 or 10 pmol SSB in 15 µl; fluorescence: Buffer A (composition not given in the material) with ~50 or ~200 mM NaCl. The note with it: protein: recombinant; chain copies: 4; label: 5'-32P.

We go through 1 molecule from PMC3236198.

Chain of ΔC SSB (P0AGE0 1-113, tags or fused parts left off): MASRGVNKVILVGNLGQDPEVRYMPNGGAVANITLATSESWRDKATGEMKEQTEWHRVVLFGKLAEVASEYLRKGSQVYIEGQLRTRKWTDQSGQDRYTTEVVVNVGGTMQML

B1: 79mer ssDNA (ssDNA)
DNA: GCACTAGTGCGGATAGCCCCGTGTTGTTGTCTGACCCCCGACCCCGACGGCAATGCGGGGCAATCCCCTGGAGGCCTGC
On to B1, for which the binding result is “binds”.
